# Laboratory results published in patent US20180126009A1 (SURGIMAB S A S, published 2018).
# T1: carcinoembryonic antigen (UniProt P06731 35-685, limits assumed)
# T1 construct: Antigen preparation used in the SPR assay; also called CEA
# T1 sequence (looked up): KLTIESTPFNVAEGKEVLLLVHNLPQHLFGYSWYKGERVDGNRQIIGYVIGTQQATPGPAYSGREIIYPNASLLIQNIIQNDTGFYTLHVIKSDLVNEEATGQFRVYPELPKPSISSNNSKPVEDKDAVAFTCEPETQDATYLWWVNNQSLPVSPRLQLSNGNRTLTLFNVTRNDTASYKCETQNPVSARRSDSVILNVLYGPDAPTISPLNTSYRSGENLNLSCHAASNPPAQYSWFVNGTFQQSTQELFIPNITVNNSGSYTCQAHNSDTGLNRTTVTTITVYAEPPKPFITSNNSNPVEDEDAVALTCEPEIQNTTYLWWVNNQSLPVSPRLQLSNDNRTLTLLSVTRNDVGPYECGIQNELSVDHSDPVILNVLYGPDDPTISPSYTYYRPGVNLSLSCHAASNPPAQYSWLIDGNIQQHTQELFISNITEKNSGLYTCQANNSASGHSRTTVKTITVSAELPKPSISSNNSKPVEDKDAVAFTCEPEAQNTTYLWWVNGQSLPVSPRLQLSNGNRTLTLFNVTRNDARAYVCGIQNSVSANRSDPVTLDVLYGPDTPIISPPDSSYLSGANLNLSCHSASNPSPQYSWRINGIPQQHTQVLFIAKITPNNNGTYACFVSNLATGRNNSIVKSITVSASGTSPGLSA
# How the values were obtained:
# carcinoembryonic antigen [1] = molecular target: T1, carcinoembryonic antigen; test: SPR, BIACORE 3000, CEA thiol-coupled to CM5 chip, antibody in flow at 50 nM to 1.5 nM; chimeric antibody of Example 1, unlabelled
# Description: (§1) The affinity of the fluorescent conjugate as prepared in Example 3 to the target carcinoembryonic antigen was also determined, using surface plasmon resonance (SPR) on a BIACORE 3000 device. Carcinoembryonic antigen was coupled to a CM5 chip via the thiol groups (Surface Thiol Coupling GE healthcare; Instruction 22-0618-10AB). Association and dissociation rates were measured using in the flow 6 different concentrations (from 50 nM to 1.5 nM) of the chimeric monoclonal antibody of Example 1, the monoclonal antibody m511 (the original murine antibody from which the variable regions the chimeric monoclonal antibody of Ex. 1 is based) and fluorescent conjugate. Data acquisition and parameters calculations were performed using the Bia software and Bia evaluation programs.
# carcinoembryonic antigen [2] = molecular target: T1, carcinoembryonic antigen; test: SPR, BIACORE 3000, CEA thiol-coupled to CM5 chip, conjugate in flow at 50 nM to 1.5 nM; chimeric antibody labelled with the near-infrared dye (conjugate of Ex. 3)
# Description: as §1
# carcinoembryonic antigen [3] = molecular target: T1, carcinoembryonic antigen; test: SPR, BIACORE 3000, CEA thiol-coupled to CM5 chip, antibody in flow at 50 nM to 1.5 nM; parental murine antibody m511
# Description: as §1
binder,measurement,setting,value
"anti-CEA chimeric monoclonal antibody of Example 1 (antibody, human IgG1, V domains shown, Expressed in CHO cells; 148.6 kDa by MALDI-TOF; also called chimeric mAb directed against CEA; anti-CEA chimeric mAb) VH: DVQLVESGGGLVQPGGSRKLSCAASGFTFSNFGMHWIRQAPEKGLEWVAYISGGSSTIYFADTLKGRFTISRDNPKNTLFLQMTSLRSEDTAIYYCARDYYINNYWYFDVWGAGTTVTVSS VL: DIVMTQSQKFMSTSVGDRVSITCKASQNVRSAVAWYQQTPGQSPKALIYLASNRYTGVPDRFTGSGSGTDFTLTISNVQSEDLADYFCLQHWNYPLTFGGGTKLELK",Kd,carcinoembryonic antigen [1],0.0327 nM
"fluorescent conjugate of Example 3 (anti-CEA chimeric mAb of Example 1 coupled to the fluorochrome of Formula (IV)) (antibody, V domains shown, cyanine fluorochrome (NHS ester of Formula (IV), giving moiety F of formula (II)) coupled to the antibody; average fluorochrome/antibody molar ratio 1.5-1.6; sites of coupling not stated, In the tissue cross-reactivity study the conjugate was also biotin labelled; also called conjugate of Ex. 3) VH: DVQLVESGGGLVQPGGSRKLSCAASGFTFSNFGMHWIRQAPEKGLEWVAYISGGSSTIYFADTLKGRFTISRDNPKNTLFLQMTSLRSEDTAIYYCARDYYINNYWYFDVWGAGTTVTVSS VL: DIVMTQSQKFMSTSVGDRVSITCKASQNVRSAVAWYQQTPGQSPKALIYLASNRYTGVPDRFTGSGSGTDFTLTISNVQSEDLADYFCLQHWNYPLTFGGGTKLELK",Kd,carcinoembryonic antigen [2],0.0321 nM
"monoclonal antibody m511 (antibody, V domains shown, Murine parental antibody; also called parental murine 511 antibody; original murine antibody) VH: DVQLVESGGGLVQPGGSRKLSCAASGFTFSNFGMHWIRQAPEKGLEWVAYISGGSSTIYFADTLKGRFTISRDNPKNTLFLQMTSLRSEDTAIYYCARDYYINNYWYFDVWGAGTTVTVSS VL: DIVMTQSQKFMSTSVGDRVSITCKASQNVRSAVAWYQQTPGQSPKALIYLASNRYTGVPDRFTGSGSGTDFTLTISNVQSEDLADYFCLQHWNYPLTFGGGTKLELK",Kd,carcinoembryonic antigen [3],0.0382 nM
